Reference: patent US9540428B2, “Extracellular matrix heparin-binding domains” (EPFL-TTO, priority 2012, dated 2017)

Key:
FGF-18 = target: T1, FGF-18 (Homo sapiens, UniProt O76093); test: ELISA binding to coated FGF-18; settings: 50 nM cytokine coated
T1 sequence (O76093 28-207): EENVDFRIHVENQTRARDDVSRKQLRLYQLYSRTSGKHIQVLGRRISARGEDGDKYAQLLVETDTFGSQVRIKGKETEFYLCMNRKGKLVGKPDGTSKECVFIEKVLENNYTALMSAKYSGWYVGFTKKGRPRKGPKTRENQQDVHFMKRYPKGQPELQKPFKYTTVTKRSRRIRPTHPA
Description: (§1) ELISA plates were coated with cytokines or BSA and further incubated with TNC III1-5 to analyze binding of TNC III1-5 to a wide variety of cytokines. […] Results are depicted in FIG. 3. Method: 50 nM of cytokine was coated for (1 hr, 37° C.). After blocking with 2% BSA (1 hr, RT). 100 nM TNC III1-5 was applied in PBST (0.05% tween, 0.1% bovine serum albumin (BSA)) (1 hr, RT). TNC III1-5 was detected with horseradish peroxidase (HRP)-anti-HIS in PBST (1 hr, RT) and developed with 3,3′,5,5′-tetramethylbenzidine (TMB), a soluble colorimetric HRP […]. Addition of sulfuric acid stop solution changes the color to yellow, enabling accurate measurement of the intensity at 450 nm using a spectrophotometer or plate reader. […] Heparin (4 μM) was added to TNC III1-5 to test the effect of blocking the heparin binding site of TNC III1-5, which has been defined as domain TNC III5 (Weber, Zimmermann, et al., 1995).

VEGF-C = target: T2, VEGF-C (Homo sapiens, UniProt P49767); test: ELISA binding to coated VEGF-C; settings: 50 nM cytokine coated
T2 sequence (P49767 112-419): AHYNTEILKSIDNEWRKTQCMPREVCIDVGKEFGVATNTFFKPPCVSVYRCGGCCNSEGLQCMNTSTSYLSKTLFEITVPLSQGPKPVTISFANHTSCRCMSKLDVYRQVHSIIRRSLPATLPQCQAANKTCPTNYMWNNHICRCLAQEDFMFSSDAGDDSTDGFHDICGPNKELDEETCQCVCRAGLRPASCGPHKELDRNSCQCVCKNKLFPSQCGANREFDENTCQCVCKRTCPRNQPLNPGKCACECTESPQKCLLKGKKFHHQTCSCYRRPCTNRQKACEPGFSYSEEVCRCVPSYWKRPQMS
Description: as §1

FGF-4 = target: T3, FGF-4 (Homo sapiens, UniProt P08620); test: ELISA binding to coated FGF-4; settings: 50 nM cytokine coated
T3 sequence (P08620 31-206): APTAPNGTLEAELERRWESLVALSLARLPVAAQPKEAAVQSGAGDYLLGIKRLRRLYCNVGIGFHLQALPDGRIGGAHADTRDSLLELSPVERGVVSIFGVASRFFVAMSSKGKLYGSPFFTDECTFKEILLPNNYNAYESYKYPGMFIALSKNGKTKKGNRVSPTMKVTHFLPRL
Description: as §1

SMC = test: Smooth muscle cell proliferation on modified TG-PEG gels with PDGF-BB; assay type: cell-based
Description: Method: Three different gels were fabricated, unmodified PEG, and PEG gels modified with TNC III1-5 or FN III9*-10,TNC III1-5 (5 μM). Unbound fragment was washed from the gels. Sequentially, gels were incubated for 1 hour at 37° C. with 100 μL DMEM without PDGF-BB or with PDGF-BB (1 ng per gel). For one set of gels, the media containing PDGF-BB was removed and gels were washed for 1 hour at RT. Cells were added to each gel and a proliferation assay with Alamar Blue was performed at 72 hours.

HGF = HGF (Homo sapiens, UniProt P14210); test: ELISA binding to coated HGF; settings: 50 nM cytokine coated
Description: as §1

PDGF-DD = PDGF-DD (Homo sapiens, UniProt Q9GZP0); test: ELISA binding to coated PDGF-DD; settings: 50 nM cytokine coated
Description: as §1

FGF-6 = target: T4, FGF-6 (Homo sapiens, UniProt P10767); test: ELISA binding to coated FGF-6; settings: 50 nM cytokine coated
T4 sequence (P10767 38-208): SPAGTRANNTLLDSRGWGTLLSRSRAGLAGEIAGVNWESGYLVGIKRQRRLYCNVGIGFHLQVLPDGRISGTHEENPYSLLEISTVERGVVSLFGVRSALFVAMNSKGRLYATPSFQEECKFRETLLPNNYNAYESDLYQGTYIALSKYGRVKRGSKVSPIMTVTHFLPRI
Description: as §1

BMP-2/7 = target: T5, BMP-2/7 (Homo sapiens, UniProt P12643+P18075); test: ELISA binding to coated BMP-2/7; settings: 50 nM cytokine coated
T5 sequence (P12643 283-396): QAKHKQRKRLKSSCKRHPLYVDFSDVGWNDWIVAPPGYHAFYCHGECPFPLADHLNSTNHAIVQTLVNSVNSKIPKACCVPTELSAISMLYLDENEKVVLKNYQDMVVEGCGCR
T5 sequence (P18075 293-431): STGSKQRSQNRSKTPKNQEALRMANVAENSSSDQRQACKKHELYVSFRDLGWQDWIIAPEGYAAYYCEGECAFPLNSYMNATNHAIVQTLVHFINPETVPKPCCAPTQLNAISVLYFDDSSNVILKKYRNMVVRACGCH
Description: as §1
(§2) ELISA plates were coated with cytokines or BSA and further incubated with Fg β15-66 to analyze binding of […] to a wide variety of cytokines. […] Results are depicted in FIG. 4. Method: The methods were analogous to those used in Example 3.

FGF-5 = target: T6, FGF-5 (Homo sapiens, UniProt P12034); test: ELISA binding to coated FGF-5; settings: 50 nM cytokine coated
T6 sequence (P12034 21-268): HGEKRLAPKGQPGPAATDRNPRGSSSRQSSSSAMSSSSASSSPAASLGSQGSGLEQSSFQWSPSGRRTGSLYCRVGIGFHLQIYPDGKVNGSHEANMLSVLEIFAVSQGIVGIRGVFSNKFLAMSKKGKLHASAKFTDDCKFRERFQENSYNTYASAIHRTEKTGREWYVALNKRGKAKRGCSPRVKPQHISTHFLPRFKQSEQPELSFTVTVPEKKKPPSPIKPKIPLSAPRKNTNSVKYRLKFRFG
Description: as §1, §2

Sequence of HGF (P14210 32-728, species assumed): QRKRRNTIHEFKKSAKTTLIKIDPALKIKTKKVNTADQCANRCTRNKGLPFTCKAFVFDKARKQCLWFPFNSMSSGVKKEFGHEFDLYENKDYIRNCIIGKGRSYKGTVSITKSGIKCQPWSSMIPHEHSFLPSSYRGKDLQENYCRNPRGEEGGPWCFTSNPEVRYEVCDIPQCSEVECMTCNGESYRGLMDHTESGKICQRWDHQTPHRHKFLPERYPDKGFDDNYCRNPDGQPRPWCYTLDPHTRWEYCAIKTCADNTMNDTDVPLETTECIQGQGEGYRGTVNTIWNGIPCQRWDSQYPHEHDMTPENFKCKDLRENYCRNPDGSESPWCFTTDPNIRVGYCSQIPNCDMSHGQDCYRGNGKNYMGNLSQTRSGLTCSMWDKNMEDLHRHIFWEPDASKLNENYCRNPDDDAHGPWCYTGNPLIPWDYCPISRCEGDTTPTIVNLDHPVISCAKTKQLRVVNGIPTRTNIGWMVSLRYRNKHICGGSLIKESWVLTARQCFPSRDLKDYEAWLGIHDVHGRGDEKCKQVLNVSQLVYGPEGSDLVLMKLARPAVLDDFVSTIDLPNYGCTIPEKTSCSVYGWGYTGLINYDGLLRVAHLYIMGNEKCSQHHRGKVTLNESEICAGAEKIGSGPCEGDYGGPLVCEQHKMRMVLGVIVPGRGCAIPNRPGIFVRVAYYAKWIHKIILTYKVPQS
Sequence of PDGF-DD (Q9GZP0 250-370 limits assumed): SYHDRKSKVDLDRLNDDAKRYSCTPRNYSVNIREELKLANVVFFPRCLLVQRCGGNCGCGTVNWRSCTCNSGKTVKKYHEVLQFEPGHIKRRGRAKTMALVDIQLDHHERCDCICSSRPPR

Molecule | binding to FGF-18 (ELISA, signal above BSA background) (FGF-18) | binding to VEGF-C (ELISA, signal above BSA background) (VEGF-C) | binding to FGF-4 (ELISA, signal above BSA background) (FGF-4) | SMC proliferation on TG-PEG gels (2%) (SMC; in the presence of PDGF-BB, 5 μM fragment, 72 hours) | SMC proliferation on modified gels vs unmodified gels (SMC; unbound PDGF-BB removed, p<0.05) | binding to HGF (ELISA, signal above BSA background) (HGF) | binding to PDGF-DD (ELISA, signal above BSA background) (PDGF-DD) | binding to FGF-6 (ELISA, signal above BSA background) (FGF-6) | binding to BMP-2/7 (ELISA, signal above BSA background) (BMP-2/7) | binding to FGF-5 (ELISA, signal above BSA background) (FGF-5)
TNC III1-5: recombinant tenascin C fibronectin type III repeats 1-5 (E622 to A1074) with transglutaminase substrate NQEQVSPL and 6×His tag, SEQ ID NO:1 (protein, Tenascin III signal sequence with polyhistidine tag) METDTLLLWVLLLWVPGSTGDAAQPAIEGRNQEQVSPLGGSEVSPPKDLVVTEVTEETVNLAWDNEMRVTEYLVVYTPTHEGGLEMQFRVPGDQTSTIIQELEPGVEYFIRVFAILENKKSIPVSARVATYLPAPEGLKFKSIKETSVEVEWDPLDIAFETWEIIFRNMNKEDEGEITKSLRRPETSYRQTGLAPGQEYEISLHIVKNNTRGPGLKRVTTTRLDAPSQIEVKDVTDTTALITWFKPLAEIDGIELTYGIKDVPGDRTTIDLTEDENQYSIGNLKPDTEYEVSLISRRGDMSSNPAKETFTTGLDAPRNLRRVSQTDNSITLEWRNGKAAIDSYRIKYAPISGGDHAEVDVPKSQQATTKTTLTGLRPGTEYGIGVSAVKEDKESNPATINAATELDTPKDLQVSETAETSLTLLWKTPLAKFDRYRLNYSLPTGQWVGVQLPRNTTSYVLRGLEPGQEYNVLLTAEKGRHKSKPARVKASTEQAGGGSHHHHHH | positive binding | positive binding | positive binding | enhanced SMC proliferation | significantly increased proliferation | positive binding | positive binding | positive binding |  | 
Fg β15-66: heparin-binding domain of human fibrinogen β chain aa15-66 (SEQ ID NO:8); construct with TG substrate and His tag, SEQ ID NO:2 (protein, GS linker, transglutaminase substrate, the Fg beta15-66, with a Histidine tag) GSNQEQVSPLGHRPLDKKREEAPSLRPAPPPISGGGYRARPAKAAATQKKVERKAPDAGGCGHHHHHH |  |  |  |  |  |  |  |  | positive binding | positive binding
